For assay [1], the target named is collagen-exposing bone material of diaphysis (rat femur, 0.6 N hydrochloric acid for 18 hours) (rat (Wistar)). The experiment in a line: depletion from supernatant, SDS-PAGE of supernatant (FIG. 4B).
The target of assay [2] is collagen-exposing bone material of epiphysis (rat femur, 0.6 N hydrochloric acid for 18 hours) (rat (Wistar)). The experiment in a line: depletion from supernatant, SDS-PAGE of supernatant (FIG. 3B).

In patent US20140335146A1 one finds amount of bone material data, which are given here for one substance.

With bFGF-PKD-CBD fusion protein, the amount of bone material at which the fusion protein (1.16 nmol) in the supernatant nearly disappeared amounted to 80 mg in assay [1] and 40 mg in assay [2].
